B1: Septin-12 (Homo sapiens), Q8IYM1 (parent)
chain: MDPLRRSPSPCLSSQPSSPSTPPCEMLGPVGIEAVLDQLKIKAMKMGFEFNIMVVGQSGLGKSTMVNTLFKSKVWKSNPPGLGVPTPQTLQLHSLTHVIEEKGVKLKLTVTDTPGFGDQINNDNCWDPILGYINEQYEQYLQEEILITRQRHIPDTRVHCCVYFVPPTGHCLRPLDIEFLQRLCRTVNVVPVIARADSLTMEEREAFRRRIQQNLRTHCIDVYPQMCFDEDINDKILNSKLRDRIPFAVVGADQEHLVNGRCVLGRKTKWGIIEVENMAHCEFPLLRDLLIRSHLQDLKDITHNIHYENYRVIRLNESHLLPRGPGWVNLAPASPGQLTTPRTFKVCRGAHDDSDDEF
partner: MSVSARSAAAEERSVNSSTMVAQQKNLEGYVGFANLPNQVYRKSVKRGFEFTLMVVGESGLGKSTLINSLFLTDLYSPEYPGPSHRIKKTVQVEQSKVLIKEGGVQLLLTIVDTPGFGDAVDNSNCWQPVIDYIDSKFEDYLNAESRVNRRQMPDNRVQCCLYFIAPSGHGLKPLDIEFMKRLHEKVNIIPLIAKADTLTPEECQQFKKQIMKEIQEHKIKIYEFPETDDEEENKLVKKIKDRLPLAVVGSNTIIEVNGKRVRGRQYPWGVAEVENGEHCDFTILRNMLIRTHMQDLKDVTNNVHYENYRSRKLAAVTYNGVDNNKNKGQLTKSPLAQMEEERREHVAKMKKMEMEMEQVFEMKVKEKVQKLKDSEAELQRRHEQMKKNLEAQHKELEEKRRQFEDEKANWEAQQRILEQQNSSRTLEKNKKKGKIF
B2: Microtubule-associated tumor suppressor candidate 2 (Homo sapiens), Q5JR59-3 (parent)
chain: MGHCCCKPYNCLQCLDKTNESALVKEKELSIELANIRDEVAFHTAKCEKLQKEKEELERRFEDEVKRLGWQQQAELQELEERLQLQFEAEMARLQEEHGDQLLSIRCQHQEQVEDLTASHDAALLEMENNHTVAITILQDDHDHKVQELMSTHELEKKELEENFEKLRLSLQDQVDTLTFQSQSLRDRARRFEEALRKNTEEQLEIALAPYQHLEEDMKSLKQVLEMKNQQIHEQEKKILELEKLAEKNIILEEKIQVLQQQNEDLKARIDQNTVVTRQLSEENANLQEYVEKETQEKKRLSRTNEELLWKLQTGDPTSPIKLSPTSPVYRGSSSGPSSPARVSTTPR

The variants in test [1] derive from B1. The settings on record: with sept7_human SEPTIN7, Q16181.
In the test “catz_human CTSZ, Q9UBR2” the parent is B2. The settings on record: with catz_human CTSZ.
Variants of B2 are the subject of test [2]. To be noted: with zn136_human ZNF136, P52737.
Variants of B2 are the subject of the test “TSGA10IP, Q3SY00”. To be noted: with TSGA10IP.
In the test “kat5_human KAT5, Q92993” the parent is B2. To be noted: with kat5_human KAT5, Q92993.
In test [3] the parent is B2. The settings on record: with cd5r1_human CDK5R1, Q15078.
The test “bmp7_human BMP7, P18075” covers variants of B2. The settings on record: with bmp7_human BMP7, P18075.
Test [4] covers variants of B2. The settings on record: with gtpba_human GTPBP10, A4D1E9.
Variants of B2 are the subject of test [5]. To be noted: with cdkl3_human CDKL3, Q8IVW4.
In test [6] the parent is B2. The settings on record: with cu058_human C21orf58, P58505.
In test [7] the parent is B2. To be noted: with zn426_human ZNF426, Q9BUY5.
The variants in test [8] derive from B2. The settings on record: with snai1_human SNAI1, O95863.
Variants of B2 are the subject of test [9]. To be noted: with zn329_human ZNF329, Q86UD4.
Chain of zn329_human ZNF329, Q86UD4 (Q86UD4 whole entry): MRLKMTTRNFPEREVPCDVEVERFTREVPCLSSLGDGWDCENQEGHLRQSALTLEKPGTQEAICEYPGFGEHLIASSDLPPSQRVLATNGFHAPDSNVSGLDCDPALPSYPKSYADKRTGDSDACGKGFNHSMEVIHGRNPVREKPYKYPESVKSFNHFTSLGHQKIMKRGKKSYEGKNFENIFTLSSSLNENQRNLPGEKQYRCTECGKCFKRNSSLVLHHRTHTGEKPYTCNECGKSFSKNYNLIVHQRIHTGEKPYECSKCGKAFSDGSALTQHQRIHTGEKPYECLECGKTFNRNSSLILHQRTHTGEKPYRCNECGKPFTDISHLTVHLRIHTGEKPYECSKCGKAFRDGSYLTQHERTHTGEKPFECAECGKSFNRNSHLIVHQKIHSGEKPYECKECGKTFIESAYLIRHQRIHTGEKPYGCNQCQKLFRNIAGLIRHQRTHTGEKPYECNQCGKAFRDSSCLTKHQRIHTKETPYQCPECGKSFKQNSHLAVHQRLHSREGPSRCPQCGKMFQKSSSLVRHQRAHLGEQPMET

Chain of snai1_human SNAI1, O95863 (O95863 whole entry): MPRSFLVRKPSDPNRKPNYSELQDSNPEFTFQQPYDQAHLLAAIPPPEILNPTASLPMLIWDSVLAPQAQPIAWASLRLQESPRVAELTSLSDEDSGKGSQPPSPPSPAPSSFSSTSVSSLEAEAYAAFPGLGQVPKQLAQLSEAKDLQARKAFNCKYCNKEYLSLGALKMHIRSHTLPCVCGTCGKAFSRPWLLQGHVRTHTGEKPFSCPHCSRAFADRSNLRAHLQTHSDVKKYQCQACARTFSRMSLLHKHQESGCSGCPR
Chain of cdkl3_human CDKL3, Q8IVW4 (Q8IVW4 whole entry, looked up): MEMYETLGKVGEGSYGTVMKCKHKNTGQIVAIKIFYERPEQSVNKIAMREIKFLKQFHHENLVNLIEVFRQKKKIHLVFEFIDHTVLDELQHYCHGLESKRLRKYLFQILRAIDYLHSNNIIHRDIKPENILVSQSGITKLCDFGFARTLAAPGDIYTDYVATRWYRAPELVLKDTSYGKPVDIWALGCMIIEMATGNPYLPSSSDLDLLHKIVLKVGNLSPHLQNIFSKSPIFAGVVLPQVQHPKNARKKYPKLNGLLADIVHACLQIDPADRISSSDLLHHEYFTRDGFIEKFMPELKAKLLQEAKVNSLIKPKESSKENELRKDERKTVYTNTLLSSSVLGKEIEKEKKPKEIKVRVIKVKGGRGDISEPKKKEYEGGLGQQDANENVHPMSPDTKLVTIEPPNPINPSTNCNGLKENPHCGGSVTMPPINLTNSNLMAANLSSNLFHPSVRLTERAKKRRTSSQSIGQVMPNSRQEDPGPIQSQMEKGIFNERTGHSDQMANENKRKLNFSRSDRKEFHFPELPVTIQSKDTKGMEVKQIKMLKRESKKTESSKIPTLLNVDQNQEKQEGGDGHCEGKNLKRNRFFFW
Chain of cu058_human C21orf58, P58505 (P58505 whole entry): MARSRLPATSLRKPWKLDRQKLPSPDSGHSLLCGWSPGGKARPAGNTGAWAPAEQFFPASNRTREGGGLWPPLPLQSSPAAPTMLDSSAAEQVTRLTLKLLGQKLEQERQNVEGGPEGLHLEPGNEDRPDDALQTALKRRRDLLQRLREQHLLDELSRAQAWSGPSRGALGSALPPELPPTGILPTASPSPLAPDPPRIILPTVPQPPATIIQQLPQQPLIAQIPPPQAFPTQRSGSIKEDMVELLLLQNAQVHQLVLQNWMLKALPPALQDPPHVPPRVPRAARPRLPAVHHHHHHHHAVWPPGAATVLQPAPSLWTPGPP
Chain of bmp7_human BMP7, P18075 (P18075 whole entry): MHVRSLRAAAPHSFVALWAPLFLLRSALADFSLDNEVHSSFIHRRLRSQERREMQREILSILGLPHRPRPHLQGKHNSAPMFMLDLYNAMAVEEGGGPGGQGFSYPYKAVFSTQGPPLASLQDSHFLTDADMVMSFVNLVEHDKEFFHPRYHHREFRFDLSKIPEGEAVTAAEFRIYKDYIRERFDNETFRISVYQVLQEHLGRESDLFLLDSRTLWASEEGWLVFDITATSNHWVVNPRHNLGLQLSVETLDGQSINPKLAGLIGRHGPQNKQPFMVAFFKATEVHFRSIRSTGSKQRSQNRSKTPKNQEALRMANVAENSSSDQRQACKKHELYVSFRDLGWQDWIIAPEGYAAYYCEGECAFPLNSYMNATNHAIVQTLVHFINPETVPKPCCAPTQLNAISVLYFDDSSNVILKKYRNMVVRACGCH
Chain of catz_human CTSZ, Q9UBR2 (Q9UBR2 whole entry): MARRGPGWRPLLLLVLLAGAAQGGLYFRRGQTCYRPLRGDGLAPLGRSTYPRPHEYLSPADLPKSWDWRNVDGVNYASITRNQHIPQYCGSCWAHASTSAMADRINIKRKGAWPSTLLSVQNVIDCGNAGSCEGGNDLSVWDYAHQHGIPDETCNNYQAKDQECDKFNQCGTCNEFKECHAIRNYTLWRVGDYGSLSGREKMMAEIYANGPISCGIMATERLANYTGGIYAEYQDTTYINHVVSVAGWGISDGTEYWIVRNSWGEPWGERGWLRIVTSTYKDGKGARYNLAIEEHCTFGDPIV
Chain of TSGA10IP, Q3SY00 (Q3SY00 whole entry): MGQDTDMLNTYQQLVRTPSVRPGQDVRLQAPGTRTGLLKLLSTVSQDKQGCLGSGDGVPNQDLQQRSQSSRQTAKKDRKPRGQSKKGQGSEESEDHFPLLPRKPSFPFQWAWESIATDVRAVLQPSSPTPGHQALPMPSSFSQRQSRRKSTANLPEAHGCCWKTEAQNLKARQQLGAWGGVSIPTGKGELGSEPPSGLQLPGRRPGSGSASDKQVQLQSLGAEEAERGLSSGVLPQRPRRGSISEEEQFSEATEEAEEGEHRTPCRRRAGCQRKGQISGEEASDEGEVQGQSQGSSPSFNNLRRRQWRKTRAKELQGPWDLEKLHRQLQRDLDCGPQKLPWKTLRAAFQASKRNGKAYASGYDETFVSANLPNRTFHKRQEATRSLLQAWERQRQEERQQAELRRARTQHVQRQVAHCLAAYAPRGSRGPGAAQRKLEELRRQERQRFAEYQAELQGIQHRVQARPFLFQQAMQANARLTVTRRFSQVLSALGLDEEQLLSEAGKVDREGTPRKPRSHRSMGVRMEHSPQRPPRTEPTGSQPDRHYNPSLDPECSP
Chain of zn426_human ZNF426, Q9BUY5 (Q9BUY5 whole entry): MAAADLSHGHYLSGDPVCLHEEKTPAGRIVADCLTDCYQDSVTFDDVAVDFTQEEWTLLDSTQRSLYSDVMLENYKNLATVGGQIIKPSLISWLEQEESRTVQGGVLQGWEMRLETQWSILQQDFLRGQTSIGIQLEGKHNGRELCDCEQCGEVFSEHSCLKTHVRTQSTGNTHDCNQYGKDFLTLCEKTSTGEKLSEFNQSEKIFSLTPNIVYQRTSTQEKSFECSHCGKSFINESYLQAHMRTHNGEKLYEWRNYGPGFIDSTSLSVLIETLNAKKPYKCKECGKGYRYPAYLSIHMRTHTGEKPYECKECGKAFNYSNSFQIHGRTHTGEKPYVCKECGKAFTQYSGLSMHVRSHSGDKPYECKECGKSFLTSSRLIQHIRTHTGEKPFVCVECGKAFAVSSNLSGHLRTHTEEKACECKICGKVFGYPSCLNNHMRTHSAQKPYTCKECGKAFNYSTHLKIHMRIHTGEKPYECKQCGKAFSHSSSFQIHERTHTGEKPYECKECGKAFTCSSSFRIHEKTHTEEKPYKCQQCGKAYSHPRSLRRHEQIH
Chain of cd5r1_human CDK5R1, Q15078 (Q15078 whole entry): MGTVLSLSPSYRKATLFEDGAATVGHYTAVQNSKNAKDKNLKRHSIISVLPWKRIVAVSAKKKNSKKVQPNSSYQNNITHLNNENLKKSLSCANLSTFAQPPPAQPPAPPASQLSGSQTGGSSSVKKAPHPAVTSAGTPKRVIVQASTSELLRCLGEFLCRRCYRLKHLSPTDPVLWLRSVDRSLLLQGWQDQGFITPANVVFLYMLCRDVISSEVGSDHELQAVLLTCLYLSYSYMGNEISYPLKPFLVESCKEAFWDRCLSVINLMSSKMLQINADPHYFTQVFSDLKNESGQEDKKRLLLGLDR
Chain of gtpba_human GTPBP10, A4D1E9 (A4D1E9 whole entry): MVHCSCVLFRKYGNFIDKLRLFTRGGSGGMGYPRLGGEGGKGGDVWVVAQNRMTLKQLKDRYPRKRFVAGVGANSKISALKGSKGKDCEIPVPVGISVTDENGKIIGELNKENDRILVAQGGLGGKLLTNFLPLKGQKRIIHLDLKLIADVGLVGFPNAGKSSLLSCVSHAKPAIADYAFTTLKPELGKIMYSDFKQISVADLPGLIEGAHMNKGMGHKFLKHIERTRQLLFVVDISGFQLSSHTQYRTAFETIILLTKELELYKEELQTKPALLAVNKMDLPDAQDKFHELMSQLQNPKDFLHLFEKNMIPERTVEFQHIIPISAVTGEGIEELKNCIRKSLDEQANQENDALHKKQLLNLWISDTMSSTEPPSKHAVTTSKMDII
Chain of kat5_human KAT5, Q92993 (Q92993 whole entry, looked up): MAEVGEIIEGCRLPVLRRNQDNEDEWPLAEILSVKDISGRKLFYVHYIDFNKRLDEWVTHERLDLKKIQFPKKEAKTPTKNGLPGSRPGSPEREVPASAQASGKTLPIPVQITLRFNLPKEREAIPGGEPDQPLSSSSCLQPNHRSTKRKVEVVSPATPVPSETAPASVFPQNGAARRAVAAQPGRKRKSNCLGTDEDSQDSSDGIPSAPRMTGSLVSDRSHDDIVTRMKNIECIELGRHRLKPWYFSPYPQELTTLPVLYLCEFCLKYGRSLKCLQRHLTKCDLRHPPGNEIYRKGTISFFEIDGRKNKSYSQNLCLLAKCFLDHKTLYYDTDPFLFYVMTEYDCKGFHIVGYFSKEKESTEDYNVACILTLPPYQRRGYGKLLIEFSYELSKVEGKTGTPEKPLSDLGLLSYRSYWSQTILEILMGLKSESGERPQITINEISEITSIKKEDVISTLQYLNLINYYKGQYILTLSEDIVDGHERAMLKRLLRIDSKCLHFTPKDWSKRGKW

Take MDPLRRSPSPCLSSQPSSPSTPPCEMLGPVGIEAVLDQLKIKAMKMGFEFNIMVVGQSGLGKSTMVNTLFKSKVWKSNPPGLGVPTPQTLQLHSLTHVIEEKGVKLKLTVTDTPGFGDQINNDNCWDPILGYINEQYEQYLQEEILITRQRHIPDTRVHCCVYFVPPTGHCLRPLDIEFLQRLCRTVNVVPVIARANSLTMEEREAFRRRIQQNLRTHCIDVYPQMCFDEDINDKILNSKLRDRIPFAVVGADQEHLVNGRCVLGRKTKWGIIEVENMAHCEFPLLRDLLIRSHLQDLKDITHNIHYENYRVIRLNESHLLPRGPGWVNLAPASPGQLTTPRTFKVCRGAHDDSDDEF [D197N]: the “effect of a mutation on the interaction” value in [1] was “disrupting interaction strength”.

On to MDPLRRSPSPCLSSQPSSPSTPPCEMLGPVGIEAVLDQLKIKAMKMGFEFNIMVVGQSGLGKSTMVNTLFKSKVWKSNPPGLGVPTPQTLQLHSLTHVIEEKGVKLKLTVTDTPGFGDQINNDNCWDPILGYINEQYEQYLQEEILITRQRHIPDTRVHCCVYFVPPTEHCLRPLDIEFLQRLCRTVNVVPVIARADSLTMEEREAFRRRIQQNLRTHCIDVYPQMCFDEDINDKILNSKLRDRIPFAVVGADQEHLVNGRCVLGRKTKWGIIEVENMAHCEFPLLRDLLIRSHLQDLKDITHNIHYENYRVIRLNESHLLPRGPGWVNLAPASPGQLTTPRTFKVCRGAHDDSDDEF [G169E], for which the “effect of a mutation on the interaction” value in test [1] is reported as “disrupting interaction strength”.

With MGHCCCKPYNCLQCLDKTNESALVKEKELSIELANIRDEVAFHTAKCEKLQKEKEELERRFEDEVKRLGWQQQAELQELEERLQLQFEVEMARLQEEHGDQLLSIRCQHQEQVEDLTASHDAALLEMENNHTVAITILQDDHDHKVQELMSTHELEKKELEENFEKLRLSLQDQVDTLTFQSQSLRDRARRFEEALRKNTEEQLEIALAPYQHLEEDMKSLKQVLEMKNQQIHEQEKKILELEKLAEKNIILEEKIQVLQQQNEDLKARIDQNTVVTRQLSEENANLQEYVEKETQEKKRLSRTNEELLWKLQTGDPTSPIKLSPTSPVYRGSSSGPSSPARVSTTPR [A89V], the “effect of a mutation on the interaction” value is on record as “with no effect” in the test with catz_human CTSZ, Q9UBR2; “with no effect” in [2]; “with no effect” with TSGA10IP, Q3SY00; “with no effect” with kat5_human KAT5, Q92993; “with no effect” in test [3]; “with no effect” with bmp7_human BMP7, P18075. The “effect of a mutation on the interaction” value in [4], in [5], in test [6], in test [7], in test [8] and in test [9] was “with no effect” each time.

The record behind these values is IntAct's records for PubMed 31515488.
